The text below walks through data of patent publication US20210292393A1 (published 2021).

Residue numbers refer to the chain shown, from its start.

Experiment [1] concerns the target T1, SARS-CoV-2 spike protein (SARS-CoV-2, UniProt P0DTC2 14-1208).
T1 construct: also called SARS-CoV-2 S protein; antigen of interest
As to the kind of experiment: HT-SPR, Carterra LSA; mAb coupled to chip, antigen injected; 1:1 fit.

The target in experiment [2] is SARS-CoV spike protein (SARS-CoV, UniProt P59594 14-1190).

B1: antibody 530 (antibody, V domains shown)
VH: EVQLVESGGGLVQPGGSLRLSCAASGFTFSSYWMSWVRQAPGKGLEWVANIKQDGSEKYYVDSVKGRFTISRDNAKNSLYLQMNSLRAEDTAVYYCAREPQLWSEYYFDYWGQGTLVTVSS
VL: DIQMTQSPSSLSASVGDRVTITCRASQGISSWLAWYQQKPEKAPKSLIYAASSLQSGVPSRFSGSGSGTDFTLTISSLQPEDFATYYCQQYNSYPPTFGQGTRLEIK
notes: also called mAb 530
As a reminder, the Kd is the constant that tells how readily two partners part at equilibrium. The low end stands for a tighter complex, the high end for a looser complex. As usually defined, the koff is the first-order rate constant of dissociation. The term kon denotes the second-order rate constant of association. Read a high kon as fast association. Take B1: in experiment [1], the affinity, expressed as Kd, was 2.19 nM; the koff amounted to 0.000209 s⁻¹; the kon is 95400 M⁻¹ s⁻¹.

B2: antibody 554 (antibody, V domains shown)
VH: QVQLVESGGGVVQPGRSLRLSCAASGFTFSSYAMHWVRQAPGKGLEWVAVISYDGSNKYYADSVKGRFTISRDNSKNTLYLQMNSLRAEDTAVYYCARPQGGNYYYYGMDVWGQGTTVTVSS
VL: B1 VL with L11V, E41G, S46L, Y91A, Y94F, P96L, Q100G, R103K, L104V
In experiment [1], B2 came in with a Kd of 0.129 nM, a koff of 3.5e-05 s⁻¹ and an on-rate constant (kon) of 271000 M⁻¹ s⁻¹.

B3: antibody 320 (antibody, V domains shown)
VH: QVQLVQSGAEVKKPGASVKVSCKASGYTFTSYGISWVRQAPGQGLEWMGWISAYNGNTNYAQKLQGRVTMTTDTSTRTAYMELRSLRSDDTAVYYCARVGCYYDSSGYSCAENFQHWGQGTLVTVSS
VL: QSVLTQPPSVSGAPGQRVTISCTGSSSNIGAGYDVHWYQQLPGTAPKLLIYGNSNRPSGVPDRFSGSKSGTSASLAITGLQAEDEADYYCQSYDSSLSALFGGGTKLTVL
Turning to B3, the “median fluorescence intensity, fold over isotype control” value (from here on “median fluorescence intensity, fold”) in experiment [2] came to 989 fold over isotype.

B4: antibody 559 (antibody, V domains shown)
VH: QVQLQESGPGLVKLSETLSLTCTVSGYSISSGYYWGWIRQPPGKGLEWIGSIYHSGSTYYNPSLKSRVTISVDTSKNQFSLKLSSVTAADTAVYYCAREETLGSSWYESYIDYWGQGTLVTVSS
VL: SYVLTQPPSVSVAPGKTARITCGGNNIGSKSVHWYQQKPGQAPVLVIYYDSDRPSGIPERFSGSNSGNTATLTISRVEAGDEADYYCQVWDSSSDHPRVFGGGTKLTVL
For the molecule B4, in experiment [1], the dissociation constant (Kd) was found to be 32.2 nM, the koff worked out at 0.000631 s⁻¹ and the kon was found to be 19600 M⁻¹ s⁻¹.

B5: antibody 513 (antibody, V domains shown)
VH: QVQLVESGGGVVQPGRSLRLSCAASGFTFSSYAMHWVRQAPGKGLEWVAVISYDGSNKYYADSVKGRFTISRDNSKNTLYLQMNSLRAEDTAVYYCARAGSGSYYNWFDPWGQGTLVTVSS
VL: QSALTQPASVSGSPGQSITISCTGTSSDVGGYNYVSWYQQHPGKAPKLMIYEVSNRPSGVSNRFSGSKSGNTASLTISGLQAEDEADYYCSSYTSSSTPYVFGTGTKVTVL
Regarding B5, in experiment [1], the affinity, expressed as Kd, was 0.0996 nM; the dissociation rate constant (koff) came to 2.62e-05 s⁻¹; the kon was found to be 263000 M⁻¹ s⁻¹.

B6: antibody 558 (antibody, V domains shown)
VH: B5 VH with A99G, G100Q, S101G, S103G, N106Y, W107G, F108M, P110V, L116T
VL: B5 VL with E52D, P99L
On to B6, for which, in experiment [1], binding was characterised by a dissociation constant (Kd) of 0.237 nM, the koff is 8.94e-05 s⁻¹ and the on-rate (kon) is 378000 M⁻¹ s⁻¹.

B7: antibody 562 (antibody, V domains shown)
VH: B5 VH with G100S, S103G, Y105Q, N106G, W107P
VL: QSALTQPASVSGSPGQSITISCTGTSSDVGGYNYVSWYQQHPGKAPKLMIYDVSNRPSGVSNRFSGSKSGNTASLTISGLQAEDEADYYCSSYTSSSTLLYVFGTGTKVTVLG
In experiment [1], B7 yielded a dissociation constant (Kd) of 0.0211 nM, a dissociation rate constant (koff) of 1.16e-05 s⁻¹ and a kon of 548000 M⁻¹ s⁻¹.

B8: antibody 520 (antibody, V domains shown)
VH: QVQLVESGGGVVQPGRSLRLSCAASGFTFSSYAMHWGRQAPGKGLEWVAVISYDGSNKYYADSVKGRFTISRDNSKNTLYLQMNSLRAEDTAVYYCARDGGSGWLLVGNWFDPWGQGTLVTVSS
VL: B5 VL with E52D, S97I, P99L
notes: also called mAb 520
B8: in experiment [1], the dissociation constant (Kd) is ≤ 0.229 nM, the koff was ≤ 1e-05 s⁻¹ and the kon amounted to 43600 M⁻¹ s⁻¹.

B9: antibody 518 (antibody, V domains shown)
VH: B5 VH with R98K, A99P, G100Y, Y105W, N106D, W107A, P110I, L116M
VL: not shown
In experiment [1], B9 displayed an equilibrium dissociation constant (Kd) of 0.0685 nM, an off-rate (koff) of 2.75e-05 s⁻¹ and a kon of 401000 M⁻¹ s⁻¹.

B10: antibody 557 (antibody, V domains shown)
VH: B5 VH with A99M, G100Y, Y105R, N106G, W107G, P110Y
VL: not shown
In experiment [1], B10 yielded a Kd of 0.144 nM, a dissociation rate constant (koff) of 3.35e-05 s⁻¹ and an on-rate (kon) of 233000 M⁻¹ s⁻¹.

B11: antibody 323 (antibody, V domains shown)
VH: QVQLVQSGAEVKKPGASVKVSCKVSGYTLTELSMHWVRQAPGKGLEWMGGFDPEDGETIYAQKFQGRVTMTEDTSTDTAYMELSSLRSEDTAVYYCATSTIFAPGGWFDPWGQGTLVTVSS
VL: QSALTQPASVSGSPGQSITISCTGTSSDVGSYNLVSWYQQHPGKAPKLMIYEVSKRPSGVSNRFSGSKSGNTASLTISGLQAEDEADYYCCSYAGSTHYVFGTGTKVTVL
In the case of B11, in experiment [2], the “median fluorescence intensity, fold” value is 1.29 fold over isotype.

B12: antibody 528 (antibody, V domains shown)
VH: QVQLVQSGAEVKKPGSSVKVSCKASGGTFNSNSISWVRQAPGQGLEWMGRIIPILDITMYARKFQGRVTISADKSTGTAYMDLSSLRSEDTAVYYCATDRDDSSGDYYYGMDVWGQGTTVTVSS
VL: DIQMTQSPSSLSASVGDRVTITCRASLSISNYLNWYQQKPGKAPNLLIYAASTLQSGVPSRFSGSGSGTDFTLTISSLQPEDFATYYCQQTYITRWTFGQGTKVEIK
notes: also called mAb 528
In experiment [1], B12 displayed a Kd of 0.509 nM, a dissociation rate constant (koff) of 0.000285 s⁻¹ and a kon of 560000 M⁻¹ s⁻¹.

B13: antibody 585 (antibody, V domains shown)
VH: QVQLVESGGGVVQPGRSLRLSCAASGFTFATYAMHWVRQAPGKGLEWVALISHDGSNKHYADSVKGRFTISRDNSKKTLYLQMNSLRAEGTAIYYCARESLEAAAPPFDYWGQGTLVTVSS
VL: SYELTQPPSVSVSPGQTATIICSGDKLGEKYASWYQQKPGQSPALVIYQDRKRPSGIPERFSGSNSGNTATLTISGTQAMDEADYYCQAWDSSNSVVFGGGTKLTVP
As to B13, in experiment [1], the Kd was 0.248 nM, the off-rate constant (koff) worked out at 4.59e-05 s⁻¹ and the kon came out at 185000 M⁻¹ s⁻¹.

B14: antibody 515 (antibody, V domains shown)
VH: EVQLVESGGGLVKPGGSLRLSCAASGFTFSSYSMNWVRQAPGKGLEWVSSISSSSSYIYYADSVKGRFTISRDNAKNSLYLQMNSLRAEDTAVYYCASIAAAGTLYYYYGMDVWGQGTTVTVSS
VL: not shown
In experiment [1], B14 came in with a Kd of 44.2 nM, a koff of 0.00134 s⁻¹ and a kon of 30200 M⁻¹ s⁻¹.

B15: antibody 329 (antibody, V domains shown)
VH: EVQLVESGGGLVQPGGSLRLSCAASGFTFSSYWMHWVRQAPGKGLVWVSRINSDGSSTSYADSVKGRFTISRDNAKNTLYLQMNSLRAEDTAVYYCAREGIVATITLDYWGQGTLVTVSS
VL: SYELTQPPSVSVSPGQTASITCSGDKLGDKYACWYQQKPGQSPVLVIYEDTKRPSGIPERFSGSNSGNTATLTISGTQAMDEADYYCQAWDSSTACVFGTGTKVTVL
B15: in experiment [2], the “median fluorescence intensity, fold” value came to 2.46 fold over isotype.

B16: antibody 324 (antibody, V domains shown)
VH: QVQLQESGPGLVKPSGTLSLTCAVSGGSISSSNWWSWVRQPPGKGLEWIGEIYHSGSTNYNPSLKSRVTISVDNSKNQFSLKLSSVTAADTAVYYCARESVAAAGISYYYYGMDVWGQGTTVTVSS
VL: EIVLTQSPGTLSLSPGERATLSCRASQSVSGRYLAWYQQKPGQAPRLLIYGASSRATGIPDRFSGSGSGTDFTLTISRLEPEDFAVYYCQHYGSSPGTFGQGTRLEIK
Turning to B16, the “median fluorescence intensity, fold” value in experiment [2] came out at 1.14 fold over isotype.

B17: antibody 328 (antibody, V domains shown)
VH: B16 VH
VL: DIQMTQSPSSLSASVGDRVTITCRASQGIRNDLGWYQQKPGKAPKRLIYAASSLQSGVPSRFSGSGSGTEFTLTVSGLQPEDFATYYCLQYNSSPLTFGGGTKVEIK
Take B17: in experiment [2], the “median fluorescence intensity, fold” value was determined as 1.22 fold over isotype.

B18: antibody 331 (antibody, V domains shown)
V domain 1: QITLKESGPTLVKPTETLTLTCSFSGFSLTKTGEAAGWIRQAPGRALEWVTVIFWDDDKRYSPSLQNRISVTKDTSKNQVVLRMTNVARFDTGTYFCWAMGGPGKEYFGQGTLVAVSS
V domain 2: QSVLTQPPSVSGAPGQRVTISCTGTSSSIGPYSDVHWYQHVSGKAPRLLIFGNSNRPSGVPDRFSGSKSGTSASLVIAGLQAEDEADYYCQSYDSSLGEIYVFGTGTTVTVL
On to B18, for which the “median fluorescence intensity, fold” value in experiment [2] is 1.34 fold over isotype.

B19: antibody 552 (antibody, V domains shown)
VH: QVQLVQSGAEVKKPGSSVKVSCKASGGTFSSYGISWVRQAPGQGLEWMGRIIPILGIANYAQKFQGRVTITADKSTSTAYMELSSLRSEDTAVYYCARAVYAAGDDDYYYYYGMDVWGQGTTVTVSS
VL: SYELTQPPSVSVSPGQTARITCSGDALPKQYAYWYQQKPGQAPVVVIYKDSDRPSGIPERFSGSSSGTTVTLTISGVQAEDEADYYCQSADSSGTYQVFGTGTKVSVL
In experiment [1], B19 displayed a Kd of 0.0393 nM, a koff of 1.01e-05 s⁻¹ and an on-rate (kon) of 258000 M⁻¹ s⁻¹.

B20: antibody 525 (antibody, V domains shown)
VH: QVQLVESGGGVVQPGRSLRLSCAASGFTFSSYAMHWVRQAPGKGLEWVTVISYNGRNKYYADSVKGRFTISRDNSKNTLYLQMNSLRAEDTAVYWCAREGLGAIVVGLDYWGQGTLVIVSS
VL: not shown
As to B20, in experiment [1], the Kd amounted to 0.107 nM, the koff stood at 3.94e-05 s⁻¹ and the kon was found to be 367000 M⁻¹ s⁻¹.

B21: antibody 535 (antibody, V domains shown)
VH: EVQLVESGGGLIQPGGSLRLSCAASGFTVSSNYMSWVRQAPGKGLEWVSVIYSGGSTYYADSVKGRFTISRDNSKNTLYLQMNSLRAEDTAVYYCARDLTEEGDFWSASSYRRYYYYGMDVWGQGTTVTVSS
VL: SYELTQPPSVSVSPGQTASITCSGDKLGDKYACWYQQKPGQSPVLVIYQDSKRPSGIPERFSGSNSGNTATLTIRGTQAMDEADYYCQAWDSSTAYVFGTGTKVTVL
Turning to B21, in experiment [1], binding was characterised by a dissociation constant (Kd) of 0.395 nM, the off-rate constant (koff) is 4.15e-05 s⁻¹ and the kon was 105000 M⁻¹ s⁻¹.
